Source: paper PMC12487890

Columns and labels:
[1] = biological target: interferon-induced transmembrane protein 3 (IFITM3), human, untagged (UniProt Q01628); experiment: co-immunoprecipitation (anti-HA IP, anti-IFITM3 immunoblot), IFITM3/HA band ratio; conditions: mean of two co-IPs from independent transfections
[2] = biological target: interferon-induced transmembrane protein 3 (IFITM3), human, untagged (UniProt Q01628); experiment: proximity ligation assay (anti-IFITM3 and anti-HA, confocal microscopy); conditions: HEK293T cells transfected with pCMV-IFITM3 (0.50 μg) and pBJ-97ZANef-HA WT or mutant (0.25 μg); mean of 6 to 12 cells per condition; parent: 20,209
[3] = HEK293T cells cotransfected with pCMV-IFITM3 (0.50 μg) and pBJ-97ZA Nef-HA WT or mutant (0.25 μg), parent: 100
[4] = HEK293T cells cotransfected with pCMV-IFITM3 (0.50 μg) and pBJ-97ZANef-HA WT or mutant (0.25 μg)

Chain of UniProt Q01628 (Q01628 whole entry): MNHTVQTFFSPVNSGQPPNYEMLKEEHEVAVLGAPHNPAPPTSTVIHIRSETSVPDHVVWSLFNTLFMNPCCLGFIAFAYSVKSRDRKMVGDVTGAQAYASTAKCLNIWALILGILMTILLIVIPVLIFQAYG

How did the percent of parent [1, 3] turn out when “97ZA013 Nef-HA, wild type (HIV-1 clade C primary isolate) E153K” was run?
Its percent of parent is 73%.

“97ZA013 Nef-HA, wild type (HIV-1 clade C primary isolate) G2A” was tested. Which response (corrected total cell fluorescence) [2] did it give?
The response (corrected total cell fluorescence) was 3000.

What about the percent of parent [1, 4] of the same substance?
The percent of parent was 1%.

How did the response (corrected total cell fluorescence) [2] turn out when “97ZA013 Nef-HA, wild type (HIV-1 clade C primary isolate) L165A; L166A” was run?
Its response (corrected total cell fluorescence) is 12000.

And the percent of parent [1, 4]?
The percent of parent was 87%.

What does the source list for “97ZA013 Nef-HA, wild type (HIV-1 clade C primary isolate) M20A”?
response (corrected total cell fluorescence) [2]: 17200; percent of parent [1, 4]: 124%

Which percent of parent [1, 3] does the source give for “97ZA013 Nef-HA, wild type (HIV-1 clade C primary isolate) M169V; Q171L” here?
The percent of parent was 244%.

How did the percent of parent [1, 3] turn out when “97ZA013 Nef-HA, wild type (HIV-1 clade C primary isolate) N163T; C164S” was run?
Its percent of parent is 217%.

What does the source list for “97ZA013 Nef-HA, wild type (HIV-1 clade C primary isolate) R17A; R19A; R21A; R22A”?
response (corrected total cell fluorescence) [2]: 7580; percent of parent [1, 4]: 16%

For “97ZA013 Nef-HA, wild type (HIV-1 clade C primary isolate) R192F; R193H”, which percent of parent [1, 3] is on record?
The percent of parent was 188%.

How did the percent of parent [1, 3] turn out when “97ZA013 Nef-HA, wild type (HIV-1 clade C primary isolate) S152D; E153K” was run?
The percent of parent was 42%.
